Paper PMC2148169 (The Journal of Cell Biology, 1998)

Molecular target: the molecule itself
Experiment: SEC

B1: recombinant GST-Vps5p expressed in bacteria (natural protein)
chain: LEAPVWDELNHEGDKTQSLVSNSIESIGQISTNEERKDNELLETTASFADKIDLDSAPEWKDPGLSVAGNPQLEEHDNSKADDLINSLAPEQDPIADLKNSTTQFIATRESGGALFTGNANSPLVFDDTIYDANTSPNTSKSISGRRSGKPRILFDSARAQRNSKRNHSLKAKRTTASDDTIKTPFTDPLKKAEKENEFVEEPLDDRNERRENNEGKFTASVEKNILEQVDRPLYNLPQTGANISSPAEVEENSEKFGKTKIGSKVPPTEKAVAFKVEVKDPVKVGELTSIHVEYTVISESSLLELKYAQVSRRYRDFRWLYRQLQNNHWGKVIPPPPEKQSVGSFKENFIENRRFQMESMLKKICQDPVLQKDKDFLLFLTSDDFSSESKKRAFLTGSGAINDSNDLSEVRISEIQLLGAEDAAEVLKNGGIDAESHKGFMSISFSSLPKYNEADEFFIEKKQKIDELEDNLKKLSKSLEMVDTSRNTLAASTEEFSSMVETLASLNVSEPNSELLNNFADVHKSIKSSLERSSLQETLTMGVMLDDYIRSLASVKAIFNQRSKLGYFLVVIENDMNKKHSQLGKLGQNIHSEKFREMRKEFQTLERRYNLTKKQWQAVGDKIKDEFQGFSTDKIREFRNGMEISLEAAIESQKECIELWETFYQTNL
B1: binds.
